Measurements published in the supplement of paper PMC10567573.

B1: PPFIA4 (parent)
chain: YAGNLHESGVHGALLALDENFDHN
B2: ANKRD40 (parent)
chain: VCCCELGVNPDQVEKIRKLPNTLL

Variants of: B1
Assay: protein stability index of a GFP-peptide fusion (GPS, HEK-293T) (PSI 1-6); higher = more stable
Settings: c terminus: a fixed tail appended
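Also: lentivirally expressed fusions sorted by FACS into six bins by GFP to DsRed ratio, PSI derived from sequencing read proportions per bin multiplied by bin number.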

Protein stability index: each site, then its substitutions
G9: K 2.68, N 3.1, V 2.98, I 1.49, Q 2.82, P 3.59, D 3.69, T 2.9, S 2.63, Y 2.34, W 2.94, H 2.65, M 3.23, R 2.31, L 2.1, A 2.46
H11: D 4.25, Q 3.59, Y 2.35, S 2.9, C 1.22, L 1.76, F 2.49, I 1.66, W 3.06, G 3.35, E 3.19, N 2.83
D22: C 1.65, I 2.11, T 1.87, P 2.47, F 2.01, H 1.84, L 1.46, N 1.99, S 2.02, V 1.27, K 2.37, E 2.48, G 2.4, Q 2.2, W 2.41
H23: A 2.18, L 2.34, R 2.47, K 2.53, Q 2.22, F 2.12, S 2.19, T 2.61, C 2.13, D 2.58, Y 2.43, V 2.63, W 2.07, I 2.23
Y1: Q 4.64, C 3.94, K 4.5, M 4.81, I 3.86, D 4.8, F 2.04, W 3.77, L 4.49, E 5.05, A 4.8, G 5.06, P 5.39
H6: M 2.09, Q 2.19, Y 1.88, L 2.01, I 2.23, G 2.82, F 1.99, D 2.72, R 1.92, V 2.5
E7: F 2.77, D 3.14, A 1.9, V 1.93, W 2.91, S 2.58, R 1.44, I 1.54, K 1.52, P 1.95, Q 2.13, L 2.34, H 1.77
N24: Y 2.47, L 2.28, S 2.41, T 2.42, M 1.92, C 2.58, A 2.69, V 1.95, I 2.27, R 1.9, E 3.49, H 1.9, G 2.13
G12: Q 3.56, A 2.77, K 2.97, V 1.95, L 2.73, S 3.28, R 2.74, Y 1.7, T 3.22, C 2.13, M 2.59, N 3.68, E 3.78, W 3.02
A16: W 3.58, C 2.39, M 2.43, V 2.31, G 1.77, H 3.25, D 3.85, K 2.73, L 2.36, Q 3.31, F 3.06, R 2.99
L14: H 3.8, P 4.03, I 1.97, R 3.31, F 1.81, T 3.56, K 3.15, E 3.83, N 3.8, M 3.07, G 3.63, Y 2.47, A 3.27
F21: Q 3.08, G 3.58, H 3, E 3.93, K 2.89, N 3.85, W 2.69, T 3.37, D 3.92, L 3.51, I 2.69, P 3.45, A 2.9, V 2.63, R 2.53, M 2.85
L17: P 3.35, N 3.86, R 3.31, G 3.4, D 4.18, W 2.4, V 2.47, M 2.96, I 2.02, E 4.52, S 4.03, H 4.06
G3: Y 1.99, T 2.69, E 4.67, N 2.98, V 3.11, R 2.72, K 3.42, H 2.92, P 2.29, M 3.55, I 2.81, W 2.56
D18: E 2.82, N 2.74, M 2.38, L 1.76, T 2.13, G 1.95, V 2.07, C 1.34, R 2.55, Y 2.14, S 1.87
E19: T 2.68, A 2.08, C 1.33, Y 1.61, S 1.54, R 2.06, G 2.1, F 1.61, D 2.6, L 1.24, K 1.5
L5: E 4.34, H 2.38, T 2.84, F 2.02, R 3.11, I 1.94, N 2.96, M 2.23, V 2.12, S 2.72
S8: Q 2.71, A 2.51, E 3.28, D 3.16, G 2.12, K 2.67, P 2.49, F 1.72, H 2.11, V 2.48, Y 2.28
N4: K 2.09, C 2.03, F 1.75, E 3.82, R 1.93, Y 2.2, D 3.55, V 2.18, S 1.87, Q 3.69, I 2.53, G 2.65
A13: I 1.86, S 2.33, T 2.86, P 2.96, R 2.41, H 2.67, L 2.06, Y 3.02, E 4.13, C 2.21, V 2.07, Q 3.8, N 2.66, W 3.04
V10: Y 2.31, A 3.11, D 4.04, C 2.06, H 2.7, G 2.8, W 2.73, L 2.35, T 3.09, I 2.23, K 2.97, N 3.23, R 2.79
A2: E 4.19, V 1.45, P 3.96, M 3.23, G 3.49, W 3.26, Q 3.23, N 4.32, Y 3.07, H 1.85, R 4.27
N20: L 1.63, A 2.68, T 2.16, D 2.98, M 2.09, W 2.27, P 2.63, F 2.17, I 1.79, K 2.23, H 2.48, V 2.42, C 2.32
L15: E 4.23, R 2.8, A 4.13, H 3.31, I 2.22, Y 2.31, C 3.06, T 3.78, D 4.06, V 3.29, G 3.54, S 3.87, K 3.46, N 3.89

Variants of: B2
Assay: as above
Settings: c terminus: a fixed tail appended

Protein stability index, by site and new letter:
V1: Q 2.19, G 1.68, F 1.5, T 1.71, P 1.41, W 1.79, S 2.4, A 1.66, Y 1.85, E 2.83, K 2.35, M 2, L 2.04, N 2.31, D 3.1, R 1.99, C 1.96, H 2.21, I 1.2
C2: H 2.65, D 3.2, E 3.52, L 2.04, A 2.85, G 2.73, M 2.4, I 1.62, K 2.63, F 1.9
